The supplement of paper PMC11246515
± gives the standard deviation of the averaged measurements.

Experiment: total protein half-life in vivo (active degradation + dilution); higher = more stable protein
[1] = E. coli NCM3722 delta-clpP delta-lon delta-hslV, growth: N-lim chemostat, doubling time 6 h
[2] = E. coli NCM3722 delta-clpP, growth: N-lim chemostat, doubling time 6 h
[3] = E. coli NCM3722 delta-hslV, growth: N-lim chemostat, doubling time 6 h
[4] = E. coli NCM3722 delta-lon, growth: N-lim chemostat, doubling time 6 h
[5] = E. coli NCM3722 delta-smpB, growth: N-lim chemostat, doubling time 6 h
[6] = wild type E. coli NCM3722, growth: C-lim chemostat, doubling time 3 h
[7] = wild type E. coli NCM3722, growth: C-lim chemostat, doubling time 12 h
[8] = wild type E. coli NCM3722, growth: N-lim chemostat, doubling time 6 h
[9] = wild type E. coli NCM3722, growth: N-lim chemostat, doubling time 12 h
[10] = wild type E. coli NCM3722, growth: P-lim chemostat, doubling time 6 h
[11] = wild type E. coli NCM3722, growth: P-lim chemostat, doubling time 12 h
[12] = wild type E. coli NCM3722, growth: C-lim chemostat, doubling time 6 h

Row | Sequence | total protein half-life in vivo [1] [h] | total protein half-life in vivo [2] [h] | total protein half-life in vivo [3] [h] | total protein half-life in vivo [4] [h] | total protein half-life in vivo [5] [h] | total protein half-life in vivo [6] [h] | total protein half-life in vivo [7] [h] | total protein half-life in vivo [8] [h] | total protein half-life in vivo [9] [h] | total protein half-life in vivo [10] [h] | total protein half-life in vivo [11] [h] | total protein half-life in vivo [12] [h]
1 | MLEILYQDEWLVAVNKPSGWLVHRSWLDRDEKVVVMQTVRDQIGQHVFTAHRLDRPTSGVLLMGLSSEAGRLLAQQFEQHQIQKRYHAIVRGWLMEEAVLDYPLVEELDKIADKFAREDKGPQPAVTHYRGLATVEMPVATGRYPTTRYGLVELEPKTGRKHQLRRHLAHLRHPIIGDSKHGDLRQNRSGAEHFGLQRLMLHASQLSLTHPFTGEPLTIHAGLDDTWMQALSQFGWRGLLPENERVEFSAPSGQDGEISS [P0AA41] | 4.78 ± 0.18 | 4.49 ± 0.16 | 4.87 ± 0.88 | 4.49 | 4.34 ± 0.19 | 3 ± 0.28 | 11.8 ± 0.17 | 5.27 ± 1.3 | 6.98 | 5.28 ± 0.23 | 10.91 ± 0.044 | –
2 | MLELLFLLLPVAAAYGWYMGRRSAQQNKQDEANRLSRDYVAGVNFLLSNQQDKAVDLFLDMLKEDTGTVEAHLTLGNLFRSRGEVDRAIRIHQTLMESASLTYEQRLLAIQQLGRDYMAAGLYDRAEDMFNQLTDETDFRIGALQQLLQIYQATSEWQKAIDVAERLVKLGKDKQRVEIAHFYCELALQHMASDDLDRAMTLLKKGAAADKNSARVSIMMGRVFMAKGEYAKAVESLQRVISQDRELVSETLEMLQTCYQQLGKTAEWAEFLQRAVEENTGADAELMLADIIEARDGSEAAQVYITRQLQRHPTMRVFHKLMDYHLNEAEEGRAKESLMVLRDMVGEKVRSKPRYRCQKCGFTAYTLYWHCPSCRAWSTIKPIRGLDGL [P0AB58] | 5.9 ± 0.22 | – | 6.34 ± 0.37 | 6.43 ± 0.094 | 6.039 ± 0.011 | 3.1 ± 0.047 | 12.2 ± 0.99 | 6.101 ± 0.027 | 15.2 ± 0.67 | 5.63 ± 0.45 | 12.5 ± 0.6 | 5.91 ± 0.073
3 | MLELNFSQTLGNHCLTINETLPANGITAIFGVSGAGKTSLINAISGLTRPQKGRIVLNGRVLNDAEKGICLTPEKRRVGYVFQDARLFPHYKVRGNLRYGMSKSMVDQFDKLVALLGIEPLLDRLPGSLSGGEKQRVAIGRALLTAPELLLLDEPLASLDIPRKRELLPYLQRLTREINIPMLYVSHSLDEILHLADRVMVLENGQVKAFGALEEVWGSSVMNPWLPKEQQSSILKVTVLEHHPHYAMTALALGDQHLWVNKLDEPLQAALRIRIQASDVSLVLQPPQQTSIRNVLRAKVVNSYDDNGQVEVELEVGGKTLWARISPWARDELAIKPGLWLYAQIKSVSITA | 5.74 ± 0.84 | 6.32 ± 1.6 | 6.25 ± 0.98 | 5.26 ± 0.55 | 5.04 ± 0.092 | 2.76 ± 0.18 | 11 ± 1.2 | 5.676 ± 0.014 | 10.2 ± 1.3 | 6.12 ± 0.077 | – | 5.77 ± 0.64
4 | MLEMLMQWYRRRFSDPEAIALLVILVAGFGIIFFFSGLLAPLLVAIVLAYLLEWPTVRLQSIGCSRRWATSIVLVVFVGILLLMAFVVLPIAWQQGIYLIRDMPGMLNKLSDFAATLPRRYPALMDAGIIDAMAENMRSRMLTMGDSVVKISLASLVGLLTIAVYLVLVPLMVFFLLKDKEQMLNAVRRVLPRNRGLAGQVWKEMNQQITNYIRGKVLEMIVVGIATWLGFLLFGLNYSLLLAVLVGFSVLIPYIGAFVVTIPVVGVALFQFGAGTEFWSCFAVYLIIQALDGNLLVPVLFSEAVNLHPLVIILSVVIFGGLWGFWGVFFAIPLATLIKAVIHAWPDGQIAQE [P0AFI9] | > 8 | – | – | – | > 8 | > 4 | 12.2 ± 0.49 | – | 10.4 ± 1.8 | – | – | 6.12 ± 0.64
5 | MLEQMGIAAKQASYKLAQLSSREKNRVLEKIADELEAQSEIILNANAQDVADARANGLSEAMLDRLALTPARLKGIADDVRQVCNLADPVGQVIDGGVLDSGLRLERRRVPLGVIGVIYEARPNVTVDVASLCLKTGNAVILRGGKETCRTNAATVAVIQDALKSCGLPAGAVQAIDNPDRALVSEMLRMDKYIDMLIPRGGAGLHKLCREQSTIPVITGGIGVCHIYVDESVEIAEALKVIVNAKTQRPSTCNTVETLLVNKNIADSFLPALSKQMAESGVTLHADAAALAQLQAGPAKVVAVKAEEYDDEFLSLDLNVKIVSDLDDAIAHIREHGTQHSDAILTRDMRNAQRFVNEVDSSAVYVNASTRFTDGGQFGLGAEVAVSTQKLHARGPMGLEALTTYKWIGIGDYTIRA | 5.127 ± 0.031 | 4.65 ± 0.2 | 4.64 ± 0.14 | 4.75 ± 0.29 | 4.5 ± 0.067 | 3.12 ± 0.3 | 10.9 ± 0.47 | 4.65 ± 0.12 | 7.82 ± 0.18 | 5.31 ± 0.65 | 12.15 ± 0.096 | 5.68 ± 0.2
6 | MLFTIQLIIILICLFYGARKGGIALGLLGGIGLVILVFVFHLQPGKPPVDVMLVIIAVVAASATLQASGGLDVMLQIAEKLLRRNPKYVSIVAPFVTCTLTILCGTGHVVYTILPIIYDVAIKNNIRPERPMAASSIGAQMGIIASPVSVAVVSLVAMLGNVTFDGRHLEFLDLLAITIPSTLIGILAIGIFSWFRGKDLDKDEEFQKFISVPENREYVYGDTATLLDKKLPKSNWLAMWIFLGAIAVVALLGADSDLRPSFGGKPLSMVLVIQMFMLLTGALIIILTKTNPASISKNEVFRSGMIAIVAVYGIAWMAETMFGAHMSEIQGVLGEMVKEYPWAYAIVLLLVSKFVNSQAAALAAIVPVALAIGVDPAYIVASAPACYGYYILPTYPSDLAAIQFDRSGTTHIGRFVINHSFILPGLIGVSVSCVFGWIFAAMYGFL [P0ABN9] | 7.71 | 5.98 ± 1.5 | 5.58 ± 0.66 | – | – | – | – | 6.04 ± 0.11 | 12.9 ± 1.5 | – | > 16 | –
7 | MLIFEGKEIETDTEGYLKESSQWSEPLAVVIAENEGISLSPEHWEVVRFVRDFYLEFNTSPAIRMLVKAMANKFGEEKGNSRYLYRLFPKGPAKQATKIAGLPKPVKCI [P0AB18] | 4.6 ± 0.063 | 3.82 ± 0.21 | 4.08 ± 0.12 | 6.01 ± 1.2 | 4.08 ± 0.076 | 2.84 ± 0.18 | 12.8 ± 2.9 | 3.49 ± 0.44 | 6.82 ± 0.45 | 4.73 ± 0.007 | 10.19 ± 0.053 | 5.35 ± 0.47
